Results on four molecules are retold here after patent US20260028405A1 (ICAHN SCHOOL OF MEDICINE AT MOUNT SINAI, published 2026).

B1: chF9H4-DANA, chimeric F9H4 with hIgG1 CH2-CH3 carrying D265A N297A (antibody)
heavy: QVQLQQPGSELVRPGASVKLSCKASGYTFTSYWMHWVKQRHGQGLEWIGNIYPGSGSTNYDEKFKSKGTLTVDTSSSTAYMHLGSLTSEDSAVYYCTMRYGGYYGYYFDYWGQGTTLTVSSAKTTAPSVYPLAPVCGDTTGSSVTLGCLVKGYFPEPVTLTWNSGSLSSGVHTFPAVLQSDLYTLSSSVTVTSSTWPSQSITCNVAHPASSTKVDKKIEPRGPTIKPCPPCKCPAPELLGGPSVFLFPPKPKDTLMISRTPEVTCVVVAVSHEDPEVKFNWYVDGVEVHNAKTKPREEQYASTYRVVSVLTVLHQDWLNGKEYKCKVSNKALPAPIEKTISKAKGQPREPQVYTLPPSRDELTKNQVSLTCLVKGFYPSDIAVEWESNGQPENNYKTTPPVLDSDGSFFLYSKLTVDKSRWQQGNVFSCSVMHEALHNHYTQKSLSLSPGK
light: EIVLTQSPTTMAASPGEKITITCSTTSSISSNYLHWYQQKPGFSPKLLIYRTSNLASGVPARFSGSGSGTSYSLTIGTMEAEDVATYYCQQGSSIPLTFGAGTKLELKRADAAPTVSIFPPSSEQLTSGGASVVCFLNNFYPKDINVKWKIDGSERQNGVLNSWTDQDSKDSTYSMSSTLTLTKDEYERHNSYTCEATHKTSTSPIVKSFNRNEC
notes: also called chF8H4-DANA; F9H4-hIG1-DANA; copies: 2 + 2
B2: anti-CD16a antibody F9H4 (antibody, V domains shown)
VH: QVQLQQPGSELVRPGASVKLSCKASGYTFTSYWMHWVKQRHGQGLEWIGNIYPGSGSTNYDEKFKSKGTLTVDTSSSTAYMHLGSLTSEDSAVYYCTMRYGGYYGYYFDYWGQGTTLTVSS
VL: EIVLTQSPTTMAASPGEKITITCSTTSSISSNYLHWYQQKPGFSPKLLIYRTSNLASGVPARFSGSGSGTSYSLTIGTMEAEDVATYYCQQGSSIPLTFGAGTKLELKR
notes: also called F9H14
B3: anti-CD16a antibody 3G8 (antibody)
chain 1: QVTLKESGPGILQPSQTLSLTCSFSGFSLRTSGMGVGWIRQPSGKGLEWLAHIWWDDDKRYNPALKSRLTISKDTSSNQVFLKIASVDTADTATYYCAQINPAWFAYWGQGTLVTVS
chain 2: DIVLTQSPASLAVSLGQRATISCKASQSVDFDGDSFMNWYQQKPGQPPKLLIYTTSNLESGIPARFSASGSGTDFTLNIHPVEEEDTATYYCQQSNEDPYTFGGGTKLELK
B4: biotinylated human CD64 protein (receptor, UniProt P12314 16-288, looked up)
chain: QVDTTKAVITLQPPWVSVFQEETVTLHCEVLHLPGSSSTQWFLNGTATQTSTPSYRITSASVNDSGEYRCQRGLSGRSDPIQLEIHRGWLLLQVSSRVFTEGEPLALRCHAWKDKLVYNVLYYRNGKAFKFFHWNSNLTILKTNISHNGTYHCSGMGKHRYTSAGISVTVKELFPAPVLNASVTSPLLEGNLVTLSCETKLLLQRPGLQLYFSFYMGSKTLRGRNTSSEYQILTARREDSGLYWCEAATEDGNVLKRSPELELQVLGLQLPTP
modifications: biotinylated
notes: also called human Fc receptor CD64

Test [1] addresses B4. The experiment in a line: ELISA, immobilised antibody detected with biotinylated human CD64. On the procedure:
(§1) FIGS. 7A, 7B, and 7C illustrate the properties of chF9H4-DANA, a chimeric antibody in which the variable and the CH1 region of F9H4 is fused to the CH2 and CH3 regions of hIgG1 comprising a D265A N297A (DANA) mutation (labeled as “F9H4-hIG1-DANA” in FIGS. 7A, 7B, and 7C). FIG. 7A. The indicated antibodies were immobilized in ELISA plates and detected by biotinylated human CD64 protein, which was added in the indicated concentrations. Highest absorbance for hIgG wild type. FIG. 7B. ELISA for reactivity of antibodies against human CD16a. Highest absorbance for F9H4-hIG1-DANA. FIG. 7C. Inhibition of CD16a shedding assay with primary NK cells that were treated with 30 ng/mL PMA to induce CD16a shedding. Highest absorbance for F9H4-hIG1-DANA. Data represent three independent experiments (FIGS. 7A, 7B, and 7C) and mean+/−SD of triplicates even though the SD bars are so small that cannot be seen (FIG. 7C).
A general note: ELISA stands for enzyme-linked immunosorbent assay.

The target of test [2] is T1, human CD16a protein (human, UniProt P08637 17-208, biotinylated in the bead assay (FIG. 4B, 4C)).
T1 construct: construct not described; also called biotinylated CD16a; FcγRIIIa
T1 sequence (P08637 17-208 limits assumed): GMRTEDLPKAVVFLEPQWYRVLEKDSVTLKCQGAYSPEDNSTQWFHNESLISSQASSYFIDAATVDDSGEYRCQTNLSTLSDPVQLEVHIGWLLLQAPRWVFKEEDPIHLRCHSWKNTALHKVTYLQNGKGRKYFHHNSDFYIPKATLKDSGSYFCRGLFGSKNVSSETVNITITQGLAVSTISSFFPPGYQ
The experiment in a line: ELISA on human CD16a.

For test [3], the target named is T2, recombinant CD16a D2 domain (UniProt P08637 107-208, limits assumed).
T2 construct: domain: D2
T2 sequence (P08637 107-208 limits assumed): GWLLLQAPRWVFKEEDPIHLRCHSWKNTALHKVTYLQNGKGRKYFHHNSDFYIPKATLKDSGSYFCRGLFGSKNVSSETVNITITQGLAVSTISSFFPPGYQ
The experiment in a line: ELISA, immobilised CD16a D2 domain [panel D2]. On the procedure: FIGS. 4A, 4B, 4C, 4D, 4E, and 4F illustrate the characterization of F9H4. FIG. 4A. An ELISA was performed with immobilized F9H4 or the positive controls, respectively. For detection, biotinylated antibodies against the indicated subclasses of murine IgG were used. From left to right: Anti-mIgG1, anti-mIgG2a, anti-mIgG2b, anti-mIgG3. FIG. 4B. Validation of a bead assay to assess CD16a binding to hIgG1. […] Two left peaks (overlapping): uncoated and DANA mutant. Right peak: hIgG1. FIG. 4C. Bead assay for CD16a binding to hIgG1. hIgG1-coated beads were incubated with 1 μg/mL biotinylated CD16a plus the indicated antibodies, followed by incubation with PE-labelled streptavidin and analysis by flow cytometry. Peaks from left to right: 30, 10, 3, and 1 μg/mL. FIG. 4D. Jukart cells were engineered to express human CD16a and luciferase in response to CD16a engagement. Cells were treated overnight with the indicated antibodies, followed by addition of luciferin and analyses in plate reader. […] Data represent two (FIG. 4D) or three (FIGS. 4A, 4B, 4C, and 4F) independent experiments, are mean+/−SE of quadruplicates (FIG. 4 D), and were analyzed by non-linear regression (FIGS. 4D and 4F).
To shed light into the mechanism by which F9H4 inhibit the cleavage, the two immunoglobulin-like domains, D1 and D2 of CD16a were examined. […] It was determined by ELISA that F9H4 binds full length CD16a and D1, but not D2. […]

In test [4] the target is T1, human CD16a protein. The experiment in a line: ELISA on human CD16a protein.
The target of test [5] is human CD16a on cells (primary NK cells; engineered reporter cells) (human, UniProt P08637 17-254). The experiment in a line: cell-based or functional assay.
human CD16a on cells (primary NK cells; engineered reporter cells), sequence (P08637 17-254, change not shown): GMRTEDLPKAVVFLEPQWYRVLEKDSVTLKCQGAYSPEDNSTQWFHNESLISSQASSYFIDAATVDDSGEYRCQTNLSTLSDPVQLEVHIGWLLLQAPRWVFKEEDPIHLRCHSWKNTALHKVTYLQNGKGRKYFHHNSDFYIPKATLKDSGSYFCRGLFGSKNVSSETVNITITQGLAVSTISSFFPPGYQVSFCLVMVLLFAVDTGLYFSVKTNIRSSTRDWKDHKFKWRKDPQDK
The target in test [6] is T3, hIgG wild type.
T3 construct: it may be the same as hIgG1
Description: ELISA, immobilised antibody detected with biotinylated human CD64. On the procedure:
as §1

As usually defined, the EC50 (read off the curve) is the concentration that produces a half-maximal response. Regarding B1, the binding result in test [1] is “no binding (tested: 1 µg/mL)”. Besides, in test [2], the “EC50 (read off the curve)” value was roughly 0.04 µg/mL. For the molecule B2, the binding result in test [3] is “no binding (tested: 10 µg/mL)”. Also, the “EC50 (read off the curve)” value in test [4] was roughly 0.001 µg/mL. Turning to B3, in test [5], the “EC50 (read off the curve), luciferase reporter of CD16a engagement (RLU)” value is roughly 0.1 µg/mL.

Take B4: the “EC50 (read off the curve)” value in test [6] is roughly 0.006 µg/mL.
